Assay results: the supplement of paper PMC10126150
± gives the standard deviation of the averaged measurements.

System: ATP
Test: switch fluorescence ratio, 500 uM ATP over buffer (Cy3 cluster intensity, sum of 5 cycles each) (fold (ratio)); higher = stronger signal-on switching upon ATP binding; sequences stand for … in TCGTCGGCAGCGTCAGATGTGTATAAGAGACAGTTTTTTTTTTTTTTTTTTTTTTTTT…TC
Conditions: aptamer strand: ATP DNA aptamer (quencher-CACCTGGGGGAGTATTGCGGAGGAAGG + anchor), 100 nM annealed; ATP concentration: 500 uM
In short: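 The quencher-labelled ATP aptamer, at 100 nM, was annealed to Cy3-labelled switching-strand clusters on a modified Illumina MiSeq flow-cell. The clusters were imaged in selection buffer, then after 15 min with 500 uM ATP at 22 °C, and this buffer/ATP cycle ran five times with NaOH stripping and re-annealing between runs. Per-cluster fluorescence ratios, summed target-cycle over summed buffer-cycle Cy3 intensity, were averaged per switch-domain sequence. Clusters outside 100-1000 RFU were excluded.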
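Also: ATP exposure 15 min at 22 °C before imaging.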

Sequence	switch fluorescence ratio
TTTGACGGTG	1.01 ± 0.034
TTTGACTATG	0.999 ± 0.022
TTTGAGGAGG	0.9876 ± 0.0046
TTTGAGGGTA	1.03 ± 0.1
TTTGAGGTGT	1.03 ± 0.012
TTTGAGTCCG	1.04 ± 0.065
TTTGAGTGAG	0.9892 ± 0.0098
TTTGAGTGAT	1.01 ± 0.057
TTTGAGTGCG	0.973 ± 0.025
TTTGATAAAT	1 ± 0.014
TTTGATAGTT	1.01 ± 0.018
TTTGATATAT	0.972 ± 0.012
TTTGATATTA	0.994 ± 0.026
TTTGATCAGA	1 ± 0.025
TTTGATCGTT	1.01 ± 0.011
TTTGATGGCT	1.02 ± 0.039
TTTGATGTAA	1.01 ± 0.026
TTTGATGTAC	1.05 ± 0.013
TTTGATGTTT	1 ± 0.031
TTTGATTAGG	1.01 ± 0.04
TTTGCAAACT	0.994 ± 0.017
TTTGCAACGA	1.25 ± 0.31

Sequence	switch fluorescence ratio
TTTGCAATTA	1.57 ± 0.5
TTTGCACGTT	1.03 ± 0.037
TTTGCAGGGT	1.03 ± 0.025
TTTGCATACT	2.75 ± 2.4
TTTGCATGCA	1.03 ± 0.02
TTTGCCAAAC	1.52 ± 0.55
TTTGCCGATG	0.985 ± 0.013
TTTGCCGGAC	1.04 ± 0.062
TTTGCCGGGG	1.02 ± 0.06
TTTGCCTCAA	1.01 ± 0.011
TTTGCCTTTG	0.9991 ± 0.0076
TTTGCGCCGT	1.02 ± 0.058
TTTGCGGACC	1.05 ± 0.025
TTTGCGTTTC	1.07 ± 0.039
TTTGCTAAAT	1.02 ± 0.02
TTTGCTAGGT	1.02 ± 0.031
TTTGCTGACG	1.02 ± 0.055
TTTGCTGTTG	0.965 ± 0.037
TTTGCTGTTT	1.01 ± 0.013
TTTGCTTACG	1.1 ± 0.13
TTTGCTTTAA	1 ± 0.067
TTTGCTTTTG	0.988 ± 0.021

Sequence	switch fluorescence ratio
TTTGGACTAT	1.012 ± 0.0038
TTTGGAGGAT	0.978 ± 0.029
TTTGGAGGGC	1.06 ± 0.065
TTTGGATACA	0.9739 ± 0.0012
TTTGGATCGT	0.981 ± 0.025
TTTGGATGGA	1.02 ± 0.023
TTTGGATGGT	0.996 ± 0.02
TTTGGCGCAC	1.06 ± 0.015
TTTGGCGCTG	0.984 ± 0.019
TTTGGCGTGC	1 ± 0.045
TTTGGCTGGG	0.985 ± 0.02
TTTGGCTTAC	1.55 ± 0.72
TTTGGCTTGG	0.992 ± 0.031
TTTGGCTTTT	1.06 ± 0.18
TTTGGGAAAA	1.05 ± 0.038
TTTGGGACGT	0.978 ± 0.03
TTTGGGAGGG	0.969 ± 0.02
TTTGGGATTA	0.983 ± 0.041
TTTGGGCCCG	0.9936 ± 0.0014
TTTGGGCGGG	1.01 ± 0.033
TTTGGGGACG	1.01 ± 0.019
TTTGGGGAGC	0.986 ± 0.045

Sequence	switch fluorescence ratio
TTTGGGGCAG	1.06 ± 0.078
TTTGGGGCGT	1 ± 0.035
TTTGGGGCT	0.957 ± 0.039
TTTGGGGGAG	1.01 ± 0.027
TTTGGGGGGG	1 ± 0.051
TTTGGGGTAA	0.991 ± 0.029
TTTGGGGTGC	1.09 ± 0.12
TTTGGGGTGT	1.01 ± 0.06
TTTGGGGTTC	1.02 ± 0.044
TTTGGGTATG	0.992 ± 0.026
TTTGGGTCTT	1.02 ± 0.013
TTTGGGTTCG	0.986 ± 0.019
TTTGGGTTGG	1.03 ± 0.13
TTTGGTAAGT	1.022 ± 0.01
TTTGGTACTT	0.986 ± 0.039
TTTGGTAGGG	1.02 ± 0.021
TTTGGTGCTG	0.983 ± 0.06
TTTGGTGGTA	0.984 ± 0.03
TTTGGTTCAG	0.994 ± 0.018
